Sequences and labels used below:
T1: human IL-2Rβ (human, UniProt P14784 27-240, limits assumed)
T1 construct: Recombinant human IL-2Rβ protein, coated on ELISA plates or immobilized on a CM5 chip; also called hu IL-2R; interleukin 2 receptor β-chain
T1 sequence: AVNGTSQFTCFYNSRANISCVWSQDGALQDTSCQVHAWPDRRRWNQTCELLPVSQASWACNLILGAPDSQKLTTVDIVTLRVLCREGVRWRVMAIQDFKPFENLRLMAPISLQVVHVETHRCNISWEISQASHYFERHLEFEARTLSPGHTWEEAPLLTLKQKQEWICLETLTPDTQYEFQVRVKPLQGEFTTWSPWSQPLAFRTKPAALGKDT

T2: human IL-2Rγ (common cytokine receptor γ-chain) (human, UniProt P31785 23-262, limits assumed)
T2 construct: Recombinant protein coated on the plate or immobilised on a CM5 chip; also called hu IL-2R; CD132
T2 sequence: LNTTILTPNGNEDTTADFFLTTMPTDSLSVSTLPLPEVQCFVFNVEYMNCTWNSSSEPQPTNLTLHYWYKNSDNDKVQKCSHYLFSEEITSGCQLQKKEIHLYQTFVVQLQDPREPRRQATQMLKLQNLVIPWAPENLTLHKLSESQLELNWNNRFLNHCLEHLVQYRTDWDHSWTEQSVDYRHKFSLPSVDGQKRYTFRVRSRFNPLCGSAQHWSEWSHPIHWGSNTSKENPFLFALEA

T3: mouse IL-2Rγ (mouse, UniProt P34902 23-263)
T3 construct: also called mo IL-2R
T3 sequence (looked up): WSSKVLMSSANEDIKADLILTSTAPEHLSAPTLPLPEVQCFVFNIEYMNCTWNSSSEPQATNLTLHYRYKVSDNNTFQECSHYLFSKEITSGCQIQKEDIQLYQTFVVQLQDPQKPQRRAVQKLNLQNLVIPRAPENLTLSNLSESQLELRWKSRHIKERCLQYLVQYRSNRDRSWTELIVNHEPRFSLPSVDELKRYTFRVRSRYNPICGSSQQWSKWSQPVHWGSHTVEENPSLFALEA

B1: FJ1427_P035MP06F09 (VHH)
VHH: QVQLVESGGGLVQAGGSLTLSCAASGRAFSNYPVGWFRQAPGKEREFVAAITWLSGSTLYADSVEGRFTISRDNAKNTVYLLMSSLKPEDTALYFCAAALKTITRGQNDYSYWGQGTQVTVSS
notes: Soluble VHH in periplasmic extract (P.E.); also called Clone nr; 550
B2: FJ1427_P035MP06H04 (VHH)
VHH: EVQLVESGGGLVQAGGSLRLSCAVSGDVFVRYTMAWFRQAPGKEREFVASVTDSGRTTEYVDSVKGRFTVSRDNAKNTAYLQMNNLKPEDTAVYYCAANTDYFQIRSLDLNTWGQGTQVTVSS
notes: Soluble VHH in periplasmic extract (P.E.); also called Clone nr
B3: FJ1427_P035MP06E04 (VHH)
VHH: B2 VHH with E1Q
notes: as for B2
B4: FJ1427_P035MP06B04 (VHH)
VHH: B2 VHH with E1Q
notes: as for B2
B5: FJ1427_P035MP06C10 (VHH)
VHH: B2 VHH with E1Q
notes: Soluble VHH in periplasmic extract (P.E.); also called Clone nr; 555
B6: FJ1427_P035MP06H03 (VHH)
VHH: B2 VHH with E1Q
notes: as for B2
B7: FJ1427_P035MP06H05 (VHH)
VHH: B2 VHH with E1Q, G10R, A23V, S50V, D62G, A79V, L108V, L110N, T112A
notes: Soluble VHH in periplasmic extract (P.E.); also called Clone nr; 520
B8: FJ1427_P035MP06H08 (VHH)
VHH: B2 VHH with E1Q, V24A, V93I
notes: as for B2
B9: FJ1427 P035MP06A08 (VHH)
VHH: EVQLVESGGGLVQAGESLRLSCAASGQYFSTYSMAWFRRTPGKEREFVTIISESGGIKEYVDSVKGRFTVSRDNAKNTVYLQMNSLKPEDTAVYYCAAARDWFARNEYQYDYWGQGTQVTVSS
notes: as for B2
B10: FJ1427_P035MP04D01 (VHH)
VHH: QVQLVESGGGLVQAGGSLRLSCAASGRTLSRYAMGWFRQAPGKEREFVTANSWGGDTYYADSVQGRFTFSRDNAKNTVYLQMNSLQPEDTAVYYCAAAPTSFATTAYSSSNSYAYWGQGTQVTVSS
notes: VHH in periplasmic extract; also called clone nr
B11: FJ1427_P035MP04B08 (VHH)
VHH: B10 VHH with A23V
notes: as for B10
B12: FJ1427_P035MP04C06 (VHH)
VHH: B10 VHH with Q1E
notes: as for B10
B13: FJ1427_P035MP04A06 (VHH)
VHH: B10 VHH with A14P
notes: as for B10
B14: FJ1427_P035MP04A01 (VHH)
VHH: B10 VHH with Q1E
notes: as for B10
B15: FJ1427_P035MP04B05 (VHH)
VHH: B10 VHH with Q1E
notes: as for B10
B16: FJ1427_P035MP04C04 (VHH)
VHH: B10 VHH with Q1E
notes: as for B10
B17: FJ1427_P035MP04E07 (VHH)
VHH: B10 VHH with E46D, T49A, N51T, Q64E, T77A
notes: as for B10
B18: 34-MP04A12 (VHH)
VHH: B10 VHH with G16S, Y32L, T49A, A50V, Y58F, Q64E, F69Y, N76S, T77A, T120A
notes: VHH in periplasmic extract; also called FJ1427_P035MP04A12; clone nr
B19: 37-MP07F09 (VHH)
VHH: B10 VHH with F47Y, T49A, A50I, N51D, Y58F, Q64E, T77E, A97G, A114R
notes: VHH in periplasmic extract; also called FJ1427_P035MP07F09; clone nr
B20: 28-MP04D02 (VHH)
VHH: B10 VHH with S109G
notes: VHH in periplasmic extract; also called FJ1427_P035MP04D02; clone nr; 300
B21: FJ1427_P035MP04D06 (VHH)
VHH: B10 VHH with T28A, Y32L, T49V, N51S, G55D, Y58F, Q64K, E88G
notes: as for B10
B22: FJ1427_P035MP04D03 (VHH)
VHH: B10 VHH with Q1E, G15E
notes: as for B10
B23: 31-MP04E03 (VHH)
VHH: QVQLVESGGGLVQAGGSLRLSCTGYGGAFTGYALGWFRQAPGKEREFVARINWSGSFTYYASSVKGRFTISRDNAKNTMYLQMNNLKPEDTAVYYCAADNPSTLATDYDNWGQGTQVTVSS
notes: VHH in periplasmic extract; also called FJ1427_P035MP04E03; clone nr

Positions count from the first letter of the chain named.

Usually koff stands for a measure of how fast the partners let go of each other.

For one experiment, the target named is T1, human IL-2Rβ. The experiment is described as follows: P.E. binding ELISA, human IL-2Rβ coated. The protocol: (§1) In a binding ELISA, human or mouse IL-2Rα, IL-2Rβ and IL-2Rγ proteins were coated directly on maxisorp microtiter plates overnight at 4° C. Free binding sites were blocked using 4% Marvel in PBS for 1 hour. Next, 1:5 dilution of P.E. in 1% Marvel/PBS were added to wells and incubated for 1 hour. […] Binding specificity was determined based on O.D. at 450 nm values compared to negative controls.
As to B1, the “OD450 nm (P.E. binding ELISA)” value turned out to be 0.564 OD450 nm.

In the case of B2, the “OD450 nm (P.E. binding ELISA)” value was 1.02 OD450 nm.

With B3, the “OD450 nm (P.E. binding ELISA)” value came to 0.974 OD450 nm.

As to B4, the “OD450 nm (P.E. binding ELISA)” value worked out at 0.935 OD450 nm.

On to B5, for which the “OD450 nm (P.E. binding ELISA)” value amounted to 0.358 OD450 nm.

For B6, the “OD450 nm (P.E. binding ELISA)” value was determined as 0.239 OD450 nm.

In the case of B7, the “OD450 nm (P.E. binding ELISA)” value is 0.59 OD450 nm.

For the molecule B8, the “OD450 nm (P.E. binding ELISA)” value stood at 0.313 OD450 nm.

With B9, the “OD450 nm (P.E. binding ELISA)” value amounted to 0.44 OD450 nm.

Another experiment has as its target T1, human IL-2Rβ. The experiment is described as follows: SPR off-rate ranking of P.E., human IL-2Rβ immobilized. The protocol:
(§2) SPR was performed to determine dissociation rates using Biacore 3000 instrument (GE Healthcare). Briefly, human and mouse IL-2R proteins were immobilized on carboxylmethyl dextran sensor chip (CM5) at approximately 2500 RUs using amine coupling in acetate buffer (GE Healthcare). The VHH-containing P.E. were loaded with a flow rate of 30 uL/min and the off-rates were measured over a 120s period.
Turning to B1, the koff worked out at 0.000147 s⁻¹.

Regarding B2, the off-rate (koff) is 0.000245 s⁻¹.

Regarding B3, the koff came to 0.000198 s⁻¹.

Consider B4, for which the koff amounted to 0.000188 s⁻¹.

For the molecule B5, the koff was 0.000208 s⁻¹.

Regarding B6, the off-rate constant (koff) is 0.000196 s⁻¹.

Molecule B7 registered a koff of 0.000885 s⁻¹.

The molecule B8 displayed an off-rate constant (koff) of 0.000349 s⁻¹.

Consider B9, for which the off-rate constant (koff) is 0.000497 s⁻¹.

The target in a further experiment is T2, human IL-2Rγ (common cytokine receptor …). The experiment is described as follows: PE binding ELISA, periplasmic extract on coated protein. The protocol: as §1
Background: In an ELISA, binding on a coated surface is turned into a signal by an enzyme label.
In the case of B10, the “OD (PE binding ELISA)” value stood at 1.02 OD450 nm.

Regarding B11, the “OD (PE binding ELISA)” value was found to be 1.44 OD450 nm.

Consider B12, for which the “OD (PE binding ELISA)” value is 0.797 OD450 nm.

On to B13, for which the “OD (PE binding ELISA)” value stood at 0.898 OD450 nm.

As to B14, the “OD (PE binding ELISA)” value was determined as 0.867 OD450 nm.

For the molecule B15, the “OD (PE binding ELISA)” value amounted to 1.49 OD450 nm.

Regarding B16, the “OD (PE binding ELISA)” value was found to be 1.43 OD450 nm.

For B17, the “OD (PE binding ELISA)” value is 0.919 OD450 nm.

As to B18, the “OD (PE binding ELISA)” value was found to be 1.3 OD450 nm.

As to B19, the “OD (PE binding ELISA)” value came to 1.81 OD450 nm.

Take B20: the “OD (PE binding ELISA)” value was 0.782 OD450 nm.

B21: the “OD (PE binding ELISA)” value stood at 2.1 OD450 nm.

With B22, the “OD (PE binding ELISA)” value worked out at 1.66 OD450 nm.

Another experiment concerns the target T3, mouse IL-2Rγ. The experiment is described as above. The protocol:
as §1
In the case of B10, the “OD (PE binding ELISA)” value was 0.066 OD450 nm.

As for B11, the “OD (PE binding ELISA)” value was determined as 0.075 OD450 nm.

For the molecule B12, the “OD (PE binding ELISA)” value stood at 0.061 OD450 nm.

On to B13, for which the “OD (PE binding ELISA)” value came to 0.063 OD450 nm.

Regarding B14, the “OD (PE binding ELISA)” value amounted to 0.06 OD450 nm.

In the case of B15, the “OD (PE binding ELISA)” value turned out to be 0.063 OD450 nm.

Take B16: the “OD (PE binding ELISA)” value was 0.063 OD450 nm.

With B17, the “OD (PE binding ELISA)” value turned out to be 0.079 OD450 nm.

As for B18, the “OD (PE binding ELISA)” value was 3.6 OD450 nm.

Consider B19, for which the “OD (PE binding ELISA)” value was found to be 1.49 OD450 nm.

Take B20: the “OD (PE binding ELISA)” value is 0.054 OD450 nm.

For B21, the “OD (PE binding ELISA)” value worked out at 0.637 OD450 nm.

Consider B22, for which the “OD (PE binding ELISA)” value is 0.063 OD450 nm.

Regarding B23, the “OD (PE binding ELISA)” value stood at 0.495 OD450 nm.

The target of the next experiment is T2, human IL-2Rγ (common cytokine receptor …). The experiment is described as follows: SPR off-rate ranking, periplasmic extract on immobilised protein. The protocol: as §2
Regarding B10, the off-rate (koff) amounted to 0.00182 s⁻¹.

For B11, the koff was found to be 0.00205 s⁻¹.

B12: the koff was determined as 0.00201 s⁻¹.

For B13, the koff turned out to be 0.00283 s⁻¹.

Molecule B14 returned a dissociation rate constant (koff) of 0.00156 s⁻¹.

With B15, the koff came to 0.00292 s⁻¹.

As to B16, the off-rate (koff) turned out to be 0.00214 s⁻¹.

B17 registered an off-rate (koff) of 0.00189 s⁻¹.

As to B18, the dissociation rate constant (koff) turned out to be 0.000333 s⁻¹.

In turn, B19 displayed a koff of 0.00126 s⁻¹.

On to B20, for which the koff turned out to be 0.0088 s⁻¹.

In the case of B21, the dissociation rate constant (koff) amounted to 0.00145 s⁻¹.

Take B22: the koff was determined as 0.00143 s⁻¹.

The target in a further experiment is T3, mouse IL-2Rγ. The description is as above. The protocol: as §2
B10 returned an off-rate (koff) of 0.113 s⁻¹.

B11 displayed a koff of 0.113 s⁻¹.

The molecule B12 gave a koff of 0.0465 s⁻¹.

Consider B13, for which the koff was found to be 0.113 s⁻¹.

Consider B14, for which the off-rate constant (koff) is 0.132 s⁻¹.

B15 returned a dissociation rate constant (koff) of 0.138 s⁻¹.

In turn, B16 displayed a koff of 0.151 s⁻¹.

Turning to B17, the off-rate constant (koff) worked out at 0.215 s⁻¹.

The molecule B18 yielded an off-rate (koff) of 0.00809 s⁻¹.

As for B19, the koff stood at 0.007 s⁻¹.

B20 gave a koff of 0.319 s⁻¹.

In the case of B21, the koff was found to be 0.0137 s⁻¹.

B22 came in with an off-rate constant (koff) of 0.168 s⁻¹.

Molecule B23 registered an off-rate (koff) of 0.283 s⁻¹.

The record behind these values is patent US20240409645A1 (DUALYX, published 2024).
